The target in assay [1] is T1, His-tagged Cpe1tox^C362A (catalytically inactive toxin domain) (Escherichia coli strain ATCC 11775, UniProt P0DXX9 338-479, C362A).
T1 sequence: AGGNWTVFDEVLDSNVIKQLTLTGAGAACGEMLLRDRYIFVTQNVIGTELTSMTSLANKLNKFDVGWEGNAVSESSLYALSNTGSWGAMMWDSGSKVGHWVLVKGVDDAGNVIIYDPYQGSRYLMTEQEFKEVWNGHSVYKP
The assay can be described thus: BLI. A general note: BLI is a label-free optical method that tracks binding on a fibre tip over time.

Assay [2] has as its target T2, His-tagged Cpe1tox^C362A (catalytically inactive toxin domain) (Escherichia coli strain ATCC 11775, UniProt P0DXX9 338-479, C362A).
T2 construct: not shown: His6, N-terminal, kept
T2 sequence: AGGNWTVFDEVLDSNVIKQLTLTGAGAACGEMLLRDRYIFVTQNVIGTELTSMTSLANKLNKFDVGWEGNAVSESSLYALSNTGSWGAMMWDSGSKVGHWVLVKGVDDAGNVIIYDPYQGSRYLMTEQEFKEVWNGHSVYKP
The experiment in a line: BLI; […]; 30 °C; PBS with 0.2% BSA, 0.02% Tween-20; association 150 s, dissociation 300 s; 1:1 global fit. The conditions noted are these: both partners purified.

Assay [3] addresses ATPase domain of ParE, strep-tagged (E. coli). The experiment in a line: BLI; […]; 30 °C; PBS with 0.2% BSA, 0.02% Tween-20; association and dissociation 120 s; […].

From article PMC12136450 (PLOS Biology, 2025) come the findings set out here.

B1: ATPase domain of ParE, strep-tagged (domain or fragment)
chain: MTQTYNADAIEVLTGLEPVRRRPGMYTDTTRPNHLGQEVIDNSVDEALAGHAKRVDVILHADQSLEVIDDGRGMPVDIHPEEGVPAVELILCRLHAGGKFSNKNYQFSGGLHGVGISVVNALSKRVEVNVRRDGQVYNIAFENGEKVQDLQVVGTCGKRNTGTSVHFWPDETFFDSPRFSVSRLTHVLKAKAVLCPGVEITFKDEINNTEQRWCYQDGLNDYLAEAVNGLPTLPEKPFIGNFAGDTEAVDWALLWLPEGGELLTESYVNLIPTMQGGTHVNGLRQGLLDAMREFCEYRNILPRGVKLSAEDIWDRCAYVLSVKMQDPQFAGQTKERLSSRQCAAFVSGVVKDAFILWLNQNVQAAELLAEMAISSAQRRMRAAKKVVRKK
modifications: C-terminal strep tag left out. Limits are not given; 1-390 is taken from the 43-kDa ATPase domain in PDB 1S16 (390 aa), which the paper uses for ParE. The K-12 strain is inferred.
In the case of B1, the koff (as a rule, the first-order rate constant of dissociation) in assay [1] is 0.47 s⁻¹.

B2: strep-tagged Cpi1 (wild type) (natural protein)
chain: MGIVFTNHNIDLLSVEFDEITKNCNYTFSVDGETAIFTARISIIRNIKGIKYSEELDKFIMSIMPLQPKVSKILGGVTWDCICGKEVGFPVRLIGK
notes: source: E. coli BL21 (DE3), pETDuet-1, purified (streptavidin resin, gel filtration)
Take B2: the koff in assay [1] turned out to be 0.00303 s⁻¹. In assay [2], the Kd (as a rule, the concentration at which binding is half-saturated) came out at 8.58 nM.

B3: His-tagged Cpe1tox^C362A (catalytically inactive toxin domain) (domain or fragment)
chain: AGGNWTVFDEVLDSNVIKQLTLTGAGAACGEMLLRDRYIFVTQNVIGTELTSMTSLANKLNKFDVGWEGNAVSESSLYALSNTGSWGAMMWDSGSKVGHWVLVKGVDDAGNVIIYDPYQGSRYLMTEQEFKEVWNGHSVYKP
B3 gave a dissociation constant Kd in assay [3] of 343 nM.
